The values below come from publication PMC12838526.

The assay addresses F-actin (polymerized rabbit skeletal muscle actin) (rabbit) (UniProt P68135). Description: co-sedimentation.

In the case of “GST-Cno H+C+FAB-His6 (Cno residues 1560-2051) (domain or fragment)”, the percent co-sedimented with F-actin amounted to 32%.
Turning to “Cno FAB peptide (residues 1967-2051), full-length form (domain or fragment)”, the percent co-sedimented with F-actin is 55% and the percent co-sedimented with F-actin, αcat ABD added came to 76%.
